Residue numbers refer to the chain shown, from its start.
Key:
[1] = target: T1, CD73-ND-his (human, UniProt P21589 27-317); assay: ELISA, high plateau value (OD 450 nm)
T1 construct: Biotinylated and captured on streptavidin in the ELISA
T1 sequence: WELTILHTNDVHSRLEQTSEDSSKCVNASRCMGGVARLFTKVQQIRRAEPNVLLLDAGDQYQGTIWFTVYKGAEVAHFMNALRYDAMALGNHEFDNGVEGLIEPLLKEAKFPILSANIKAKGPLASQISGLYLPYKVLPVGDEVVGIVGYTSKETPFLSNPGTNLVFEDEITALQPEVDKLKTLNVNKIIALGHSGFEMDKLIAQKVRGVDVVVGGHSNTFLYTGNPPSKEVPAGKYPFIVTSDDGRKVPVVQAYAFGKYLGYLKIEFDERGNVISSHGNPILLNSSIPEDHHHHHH
Experimental: (§1) The ELISA plates were coated with SA protein diluted to 1.5 μg/mL in coating buffer (50 mM carbonate coating buffer, pH 9.6) and incubated overnight at 4° C. The supernatant was discarded, and the plates were washed three times with PBST. Then, 5% skimmed milk powder prepared with PBS was added for blocking and the plates were incubated for 2 h at 37° C. After washing the plates once with PBST, CD73-biotin protein (prepared by biotinylating CD73-His protein according to the EZ-Link NHS-Biotin Reagent instructions) was diluted to 0.5 μg/mL and added at 100 μL/well for incubation at room temperature for 1 h. The plates were washed three times with PBST, and the prepared murine-derived monoclonal antibodies against human CD73 were serially diluted with 1% BSA buffer prepared with PBST and added to the ELISA plates at 100 μl/well. The plates were incubated at 37° C. for 1 h. After washing the plates three times with PBST, HRP-labeled goat anti-mouse IgG secondary antibody was added and the plates were incubated for 30 min at 37° C. After washing the plates three times with PBST, the residual droplets were patted dry on absorbent paper as much as possible. Then, 100 μl of TMB color developing solution was added to each well, and the plates were incubated in the dark at room temperature for 5 min for color development. Subsequently, 50 μl of 2M H₂SO₄ stop solution was added to each well to terminate the substrate reaction. The OD values were read at 450 nm using a multimode microplate reader to analyze the binding ability of the tested antibodies to the target antigen human CD73-His.
(§2) Referring to the experimental method in Example 3, the affinity of 48A11-HuV33 for various mutant proteins of CD73-ND was determined. The SA protein was diluted to 1 μg/mL for coating the ELISA plates, and the biotinylated CD73 protein (CD73-biotin) was used at a concentration of 0.1 μg/mL.

[2] = target: T2, CD73-ND-V186A (human, UniProt P21589 27-317); assay: ELISA, high plateau value (OD 450 nm)
T2 construct: Alanine mutant of CD73-ND
T2 sequence: T1 sequence with V186A
Experimental: as §1, §2

[3] = target: T1, CD73-ND-his; assay: ELISA; decline multiple of EC50 against CD73-ND
Experimental: as §1, §2

[4] = target: T3, CD73-ND-N185A (human, UniProt P21589 27-317); assay: ELISA; decline multiple of EC50 against CD73-ND
T3 construct: Alanine mutant of CD73-ND
T3 sequence: T1 sequence with N185A
Experimental: as §1, §2

[5] = target: T4, CD73-ND-K182A (human, UniProt P21589 27-317); assay: ELISA; decline multiple of EC50 against CD73-ND
T4 construct: Alanine mutant of CD73-ND
T4 sequence: T1 sequence with K182A
Experimental: as §1, §2

[6] = target: T5, CD73-ND-V144A (human, UniProt P21589 27-317); assay: ELISA; decline multiple of EC50 against CD73-ND
T5 construct: Alanine mutant of CD73-ND
T5 sequence: T1 sequence with V144A
Experimental: as §1, §2

[7] = target: T1, CD73-ND-his; assay: ELISA as in Example 3, antigen CD73-ND-his, antibody titrated, absorbance 450 nm

B1: 48A11-HuV33 (antibody, human IgG4, V domains shown)
VH: QVQLVQSGAEVKKPGASVKVSCKASGYTFTSYWMHWVRQAPGQGLEWIGEINPSIGRTNYNEKFKSRVTLTRDTSTSTAYMELSSLRSEDTAVYYCARRVYGTMDYWGQGTLVTVSS
VL: DIQMTQSPSSLSASVGDRVTITCKASQDINSYLSWFQQKPGKSPKLLIYRANIWVDGVPSRFSGSGSGQDYTFTISSLQPEDIATYYCLQYDELYTFGQGTKVEIK
notes: Humanized
Top [1]: 1.94 | Top [2]: 1.62 | Ratio(EC50) [3]: 1 fold | Ratio(EC50) [4]: 1.6 fold | Ratio(EC50) [5]: 1 fold | Ratio(EC50) [6]: 2.5 fold

B2: 56B10-HuV31 (antibody, human IgG4, V domains shown)
VH: QVQLQQSGAEVKKPGASVKVSCKASGYTFTRYYIYWVRQRPGQGLEWIGWIYPGNFNTKYNEKFKGRATLTADTSASTAYMELSSLTSEDTAVYYCARDVYDYAGFAYWGQGTLVTVSS
VL: DIQLTQSPSFLSASVGDRVTITCKASQGVATAVAWYQQKPGQSPKLLIYWASTRHTGVPDRFSGSGSGTEFTLTISSLQPEDFATYYCQQYSSYPWTFGQGTKVEIK
notes: Humanized
EC50 (read off the curve) [7]: ~0.08 nM
